Measurements published in paper PMC8523169, “Competitive binding of MatP and topoisomerase IV to the MukB hinge domain” (eLife, 2021).

T1: full-length ParC, N-terminal 6xHis-tag (E. coli, UniProt P0AFI2 1-752)
T1 construct: ParC subunit of topoisomerase IV, E. coli, full length; also called His-ParC; ParC2; source: overexpressed, purified as previously published (Nolivos et al., 2016) with an added SEC step; not shown: His6, N-terminal, kept
T1 sequence (looked up): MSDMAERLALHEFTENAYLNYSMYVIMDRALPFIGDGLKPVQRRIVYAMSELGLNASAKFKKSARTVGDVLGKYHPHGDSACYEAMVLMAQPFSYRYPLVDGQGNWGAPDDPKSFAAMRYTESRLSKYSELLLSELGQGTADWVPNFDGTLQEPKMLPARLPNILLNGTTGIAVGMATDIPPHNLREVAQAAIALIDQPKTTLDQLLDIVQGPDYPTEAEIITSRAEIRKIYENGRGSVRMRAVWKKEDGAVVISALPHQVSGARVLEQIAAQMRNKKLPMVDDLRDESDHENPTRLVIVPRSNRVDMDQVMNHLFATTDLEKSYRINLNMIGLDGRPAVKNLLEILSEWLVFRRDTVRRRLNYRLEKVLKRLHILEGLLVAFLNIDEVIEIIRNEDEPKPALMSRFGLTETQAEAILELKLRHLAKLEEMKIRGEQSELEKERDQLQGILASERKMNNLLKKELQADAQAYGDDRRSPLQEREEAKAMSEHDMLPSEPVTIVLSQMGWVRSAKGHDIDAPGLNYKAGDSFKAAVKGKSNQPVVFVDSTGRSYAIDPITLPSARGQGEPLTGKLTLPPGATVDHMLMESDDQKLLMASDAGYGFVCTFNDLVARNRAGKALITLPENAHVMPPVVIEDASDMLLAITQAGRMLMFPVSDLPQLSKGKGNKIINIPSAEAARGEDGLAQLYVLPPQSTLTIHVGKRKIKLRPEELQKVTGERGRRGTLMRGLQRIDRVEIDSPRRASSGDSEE

T2: MatPΔ18C (1–132), C-terminal 6xHis-tag (E. coli, UniProt P0A8N0 1-132)
T2 construct: MatP, E. coli, residues 1-132 (deletion of the 18 C-terminal residues); also called MatPΔ18C-His; MatP2; source: overexpressed, purified as previously published (Nolivos et al., 2016) with an added SEC step; not shown: His6, C-terminal, kept
T2 sequence (looked up): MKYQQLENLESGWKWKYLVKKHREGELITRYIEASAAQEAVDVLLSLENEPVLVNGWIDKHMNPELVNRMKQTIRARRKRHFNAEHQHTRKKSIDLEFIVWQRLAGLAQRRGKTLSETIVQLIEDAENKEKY


Experiments:
[1] = target: the molecule itself; assay: native MS; proteins buffer exchanged into 200 mM ammonium acetate pH 8.0, alone or mixed in different ratios (two or three components, with or without 50 bp DNA), 10 min on ice
[2] = target: T1, full-length ParC, N-terminal 6xHis-tag; assay: SEC; topoIV reconstitution: equimolar ParC and ParE, 30 min on ice, verified in analytical SEC; details: both partners purified
[3] = target: T2, MatPΔ18C (1–132), C-terminal 6xHis-tag; assay: native MS; proteins buffer exchanged into 200 mM ammonium acetate pH 8.0, alone or mixed in different ratios (two or three components, with or without 50 bp DNA), 10 min on ice; details: both partners purified

Binder	stoichiometry N [1]	binding result [2]	binding result [3]
MatP^4E (K71E, Q72E, R75E, and R77E) (domain or fragment, E. coli, UniProt P0A8N0 1-132, looked up, MatP, E. coli, residues 1-132 (MatPΔ18C) with four substitutions; also called MatP K71E, Q72E, R75E, R77E; source: site-directed mutagenesis, purified using the same protocol as MatP) MKYQQLENLESGWKWKYLVKKHREGELITRYIEASAAQEAVDVLLSLENEPVLVNGWIDKHMNPELVNRMEETIEAERKRHFNAEHQHTRKKSIDLEFIVWQRLAGLAQRRGKTLSETIVQLIEDAENKEKY	2		
ParE-His (enzyme, E. coli, UniProt P20083 1-630, looked up, ParE subunit of topoisomerase IV, E. coli; source: overexpressed, purified (TALON, HiTrap Q XL, SEC)) MTQTYNADAIEVLTGLEPVRRRPGMYTDTTRPNHLGQEVIDNSVDEALAGHAKRVDVILHADQSLEVIDDGRGMPVDIHPEEGVPAVELILCRLHAGGKFSNKNYQFSGGLHGVGISVVNALSKRVEVNVRRDGQVYNIAFENGEKVQDLQVVGTCGKRNTGTSVHFWPDETFFDSPRFSVSRLTHVLKAKAVLCPGVEITFKDEINNTEQRWCYQDGLNDYLAEAVNGLPTLPEKPFIGNFAGDTEAVDWALLWLPEGGELLTESYVNLIPTMQGGTHVNGLRQGLLDAMREFCEYRNILPRGVKLSAEDIWDRCAYVLSVKMQDPQFAGQTKERLSSRQCAAFVSGVVKDAFILWLNQNVQAAELLAEMAISSAQRRMRAAKKVVRKKLTSGPALPGKLADCTAQDLNRTELFLVEGDSAGGSAKQARDREYQAIMPLKGKILNTWEVSSDEVLASQEVHDISVAIGIDPDSDDLSQLRYGKICILADADSDGLHIATLLCALFVKHFRALVKHGHVYVALPPLYRIDLGKEVYYALTEEEKEGVLEQLKRKKGKPNVQRFKGLGEMNPMQLRETTLDPNTRRLVQLTIDDEDDQRTDAMMDMLLAKKRSEDRRNWLQEKGDMAEIEV	2	binds	
MukB short hinge (SH; amino acid residues 667–779) (domain or fragment, E. coli, UniProt P22523 667-779, looked up, MukB, E. coli, residues 667-779: hinge lacking the entire coiled-coil; Monomer/dimer mix at tens of µM by nMS; also called SH-His; SH MukB; source: overexpressed, purified (TALON, HiTrap Q XL, SEC); not shown: His6, C-terminal, kept) GGSEDQRLNALAERFGGVLLSEIYDDVSLEDAPYFSALYGPSRHAIVVPDLSQVTEHLEGLTDCPEDLYLIEGDPQSFDDSVFSVDELEKAVVVKIADRQWRYSRFPEVPLFG	2		binds
His-ParC R705E R729A (enzyme, E. coli, UniProt P0AFI2 1-752, looked up, ParC, E. coli, full length, with two substitutions; also called ParC^EA; source: site-directed mutagenesis, purified using the same protocol as ParC; not shown: His6, N-terminal, kept) MSDMAERLALHEFTENAYLNYSMYVIMDRALPFIGDGLKPVQRRIVYAMSELGLNASAKFKKSARTVGDVLGKYHPHGDSACYEAMVLMAQPFSYRYPLVDGQGNWGAPDDPKSFAAMRYTESRLSKYSELLLSELGQGTADWVPNFDGTLQEPKMLPARLPNILLNGTTGIAVGMATDIPPHNLREVAQAAIALIDQPKTTLDQLLDIVQGPDYPTEAEIITSRAEIRKIYENGRGSVRMRAVWKKEDGAVVISALPHQVSGARVLEQIAAQMRNKKLPMVDDLRDESDHENPTRLVIVPRSNRVDMDQVMNHLFATTDLEKSYRINLNMIGLDGRPAVKNLLEILSEWLVFRRDTVRRRLNYRLEKVLKRLHILEGLLVAFLNIDEVIEIIRNEDEPKPALMSRFGLTETQAEAILELKLRHLAKLEEMKIRGEQSELEKERDQLQGILASERKMNNLLKKELQADAQAYGDDRRSPLQEREEAKAMSEHDMLPSEPVTIVLSQMGWVRSAKGHDIDAPGLNYKAGDSFKAAVKGKSNQPVVFVDSTGRSYAIDPITLPSARGQGEPLTGKLTLPPGATVDHMLMESDDQKLLMASDAGYGFVCTFNDLVARNRAGKALITLPENAHVMPPVVIEDASDMLLAITQAGRMLMFPVSDLPQLSKGKGNKIINIPSAEAARGEDGLAQLYVLPPQSTLTIHVGKEKIKLRPEELQKVTGERGRRGTLMAGLQRIDRVEIDSPRRASSGDSEE	2		
